From the domain aggregation screens of Martell et al. (2025)

Experiment: soluble fraction after stress (log2 fold change); higher = more stays soluble; pooled small domains, quantitative proteomics
Conditions: stress: pH 4
Outline: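 Values are log2 fold changes, and higher ones mean more of the domain stayed soluble. Each fold change reflects the soluble amount of a domain after acid stress and is taken as a measure of aggregation propensity. The stress was pH 4, applied to pooled custom libraries of small protein domains analysed by high-throughput quantitative proteomics.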

| Sequence | soluble fraction (log2) |
| --- | --- |
| HMGMSKQKQSSLVRIIMQEISDANEGRMKMSQIIDAALIKGISDSTVRSVISRLSTTGAIYEPQTGTYEW | -0.374 |
| HMPAPMISIQLNGEPRNVQPGISIAALVREIGLEPAKVAVERNREIVPRSTLGDVLIEAGDQLEIVHFVG | 0.0156 |
| HMLRISEEVWALVEKTLREDWSPEQVSGKLKASGISVSHERIYQHIYADKRVGGTLWTHLRR | -0.767 |
| HMLLNTSQLKELYNRYDKKNSSLISIPFSAISDEPLKFYKWYAALFQIELNVKAFADVDSKQIIIYKGTK | -0.175 |
| HMNSIDIENELVKIIEKNGQPMSFDDLVFKLDSLYSTRYKFAKGYIRTIILNSNRIASIGKTSTYSLYKWN | -0.31 |
| HMTSNEKARNAASAERRADIVAAARELYEEQGLSKTSVQDITNRMGVARSLFYHYFPDKEAVTSAVLDDYV | -0.102 |
| HMAKIPASTVVEIDGAPVVVAVRVNARARSYRLSIPHSGGPLLTLPPHGKWAEAEAFLLRHHNWLAARLHR | 0.22 |
| HMQDTYQVKLLTNLNIRKSPNGTIVQKGGAKKGIIYTIVETSGTWGRLKSNAGWISVSDKYVTK | 0.102 |
| HMKPTGWVRGDMGVVDKGQLSITQGTVNVRSGPGLSYEILDQVRRGDRFPVIKSQSGWHNISM | 0.361 |
| HMPEKKKYGDFVSMTEEEYGKLVSEYGQEAAKRMVEILNNYKGATGKPYKSDYLAILNWVVKRIKEE | 0.077 |
| HMGTLRPKGTVVFANLPIAADAKEGDMYNISDQFTTTASFKEGAGNVIPAGSNVYRTDDGFWDVL | 0.193 |
| HMNAFEIYPNPASNLIRIDAEFTVAKIFSQTGNLIQTSTTKEIDVYNLANGIYFVKLDDSPSMVKFVIN | -1.09 |
| HMSLNQRIKEARIKMGYTQEQLGNLIGVAKTTISGYEKNREPDAATIGLIIDALKVDANFLFQ | -1.2 |
| HMVDEAQSLERNVLLTVLSRIGRDSRVVLTHDIAQRDNLRVGRHDGVVAVVDRLKGHPLFAHVTL | -0.0346 |
| HMGKRPTIQMVAEMAGVSRGTVDRVLNGRSYVSAQVRQRVLAALQETGYISSREHHQQALQS | 0.0645 |
| HMQAITVNNEGKIFLNTIPVTLEELSSKLESLKSSTPEFPVVIRGDSGSQYQGIMDVLNVVGRLGITQIGL | -1.08 |
| HMTQPAEINRLVEQMGSSDYKSRQEAYERLHQMGPGILDLIYPYRNHADPEIQTRVRELILSYRW | -0.547 |
| HMRKIKEVLRLKFETGFSHERIAAAVGVSKGAVTKYVQRAVAAGLGWPLAPERDDAALEALLFPH | 0.0455 |
| HMKISDTITEKILTDNNFSMELAKKIGIQQGSLLSSIRRNRDSRILRLWEAVMFYKEQGYTEEEIFTDY | -0.864 |
| HMSVTMPNLVGLDEQTAVTRINSSNLSYGSTNYVHSDHEAGVVFKQSTPAYTEVDEHTKIYIWVSLGPEE | -0.145 |
| HMLEIQENFQNILKRMELSLSPLERRVLALYLSGYERSEIPEKTGIPLKTFDNALHRVRNKMK | -0.711 |
| HMAVNDPDEKFIELGIPADWVQVVRKAGFQTVEALKTVENPNKLHQELSGLNKKMKLGLKTLSQDEVKDWF | -0.0206 |
| HMSLPALSAEEQKIVDALHGTPKGVDDIIAETGISSGALLRSLTMLELKKVIVRLPGNRIAPK | 0.113 |
| HMQFSAVVLDMETRRQVAGVAVYINPKGVVKTDMRGRFVIDGAFNSVTLVRQGYESLTLERSEMTDSIWM | -1.07 |
| HMSMDYYNILGVNRNASTGEIKKAYKRASMQHHPDRGGNSDEFIKVQQAYDTLSDNHKRQAYDNP | 0.0506 |
| HMDRRFFVAEENYKRLDVFLSERMEEFTRSRIKKLIDEGHVELNGKSAKAGAEIRPGDEVAAEIPEVKE | 0.239 |
| HMAVGTASNLIGKDIEAYAPIDGSQSSDDTKTISGKVESVHIKDGVVYMNVKDSQSENIIEVEYGALIKVN | 0.247 |
| HMRRKDIEFTNTMLEELYRHNSKWYDAVVRAYALEIPQKQIAEEMGIRLEAFQSMLFRAKKWIKTKYEADY | -0.432 |

| Sequence | soluble fraction (log2) |
| --- | --- |
| HMNSVLPQEVKSSLNDFFTKYAPGSIAQKLINHASFTGGKVVVTGVELTQTQADDLKKAFKDKFF | 0.22 |
| HMAKTGMDALVGRRVVLTKAIAGEGEGLVAVDGDVWRATSPAGSAIPKGTEVRITGYRSIVLEVEPI | 0.139 |
| HMGGVIEDDRGQWAHPGEVTKINSNNITMKGVDFPVLGISDTGDKKMMQPGKDYKFDGNSVTEYPMA | -0.5 |
| HMGQVSDENQLNKVIDEVIKNYPIQVEQFKAGKEPILQFLKGMVMKATEGSADPAVAEKLLRKKL | 0.0192 |
| HMEEVRFPLKKEILLWALKEAQVDEDEVFRKFTNLEKWINGEKHPTFKQIESLANYLKIPFGYMFLEKPPI | -1.47 |
| HMQDVVERIKKYKQLFSITSEELSKRSGIPLGTLNKILSSSTKSIKTETLAAIAKGLDVSVSDLVGREK | -0.0189 |
| HMFDDEELDRFAGVPADAYLPADEDEFREVFYTMRPGEVVEWVRSLELRHIEIPNGIKDEIFMMIR | -3.37 |
| HMEEQGLPLVIISDGKVLAQNLTLRSLDRAWLQDQLTQHGHSKPEQVFLLTVDERGAVYYVPKE | -1.86 |
| HMAPNDELTRQVISVLSGTPQQAFNYKQISKKLNINDSSERRMVSNILRELAGKGEIVEVYQGKYRSKAPA | 0.116 |
| HMGLDPVFKKWVDDNPWYTENRVLRALTHDYAEELKQTNPQLVGVEFLDQVKKRVQADHPEFFQ | -0.552 |
| HMNTISEADAKRIALERAGLTAADYVKVDYDQDDNEYEVEMRSGNTEYEVKISGSTGAVLEYDSETD | -0.0384 |
| HMNAVDLLSPQEQRIFELIGEGMSNRQIADVMYLAEKTVKNYVSNVLMKLGMERRTEAAALAARLDERQK | -0.468 |
| HMKELTARQIEILDFITNYEWRHGYWPSIRNIQVQFSYKSTNAVMGHLRALERKGAIERIPGQARTFRIH | 0.102 |
| HMDAYMGEAKDEETFAEEYLNDSGLLNEIPESVARYFDIVAYARDLLIGDFSLHDGHVFNMT | -0.377 |
| HMEMSLGEKLKQARLTKNFSQEYMAEVLQISQKTYSNFENNKTKPDFSQIEEISKVLETSILEFLT | -0.0931 |
| HMLAHSEFGARLRETRKRLGLSQSELGGDRYSGSYISHLESGRRAASAEVIEFLAGRLGVEVEELGM | -1.2 |
| HMQRYVVDENLKLDKKDINHIINVMRLNVNDQIKLINNGTIYDAIITKIEKNNVLYEIIKKEESK | -0.809 |
| HMNGQITPSRAKEIALGHAGVSEGSANFKKIKLDNKNGRPAYEIEFIANNSRYEFEINASNGSIIKFNK | -0.0812 |
| HMIEMAGGYRKGDRVELHSLKGAAEHNGKQGTVVGPQGERVKVLLDDSDSKTLALKVTNLTKLESA | 0.0709 |
| HMVKDYIQVTVNKEPVILKGKKDYIFIDIFNYIEFDLTIPKGSLYLLLNGKNAGYHDKLLDGDVIELGW | -1.63 |
| HMDREIVEAIVPLEAAGKRFDAALAEMFPEFSRSRLTEWIKAGDALLAGEIVKPKVSVRGGEAVSLSIRV | -0.256 |
| HMGIYDQAAAAYIEFVESKNRAPKWNELIDALYKENGKDWIDRSTLHGLLRRKEFQELLAQKRKEHLV | -0.159 |
| HMLGAGFDSDLTARENIFLNGALLGHSRAVMRGYYDDIVNFAELHDFMDVPVKNFSSGMTSRLAFSIATIG | 0.183 |
| HMKMAKTIKEIAEEIGVSKQAVFKKIKQVPLSTEIEKFISTVDGKKLVSVDGENLIKQAFQR | 0.255 |
| HMDLLIFSPSLGQHVRDLKRVIDRLHQHGIPVRWQKAKLLREEIEYIGWTWKSGGLIDPTNV | 0.337 |
| HMRLIDVFELSPKNRTVLQLYYYEGYSVTEISKILKISVNGVTSRLSRARSKLKLEMEAAENE | -0.0525 |
| HMSTMTGTVDTPGASLNVRTGAWGPIVGQLAHGSKVTIIGSSGDWFKISYNGATRYVHKNYVNTT | -0.0624 |
